The text below walks through data of publication PMC12109034.

For test [1], the target named is 6xHis::TdPP1a (durum wheat).
Test [2] deals with TdPP1-H135A (durum wheat).
Test [3] has as its target 6xHis::TdPP1a (durum wheat). This is another data set of the same source.
Test [4] deals with TdPP1-H135A (durum wheat). The source holds these as a separate data set.
Test [5] concerns the target TdPP1-T243M (durum wheat).
The target in test [6] is TdPP1-H135A (durum wheat). This is another data set of the same source.

As for 6xHis-MBP::TdRL1 (natural protein), the percent inhibition of phosphatase activity (pNPP) at three TdRL1 concentrations; 59% at 26 nM (1:1 molar ratio), highest value at the higher concentration in test [1] came out at 89.7%. Also, in test [2], the percent inhibition of phosphatase activity (pNPP) by TdRL1 at three concentrations; value at high concentrations is 91%. In addition, the IC50 of inhibition of phosphatase activity (pNPP substrate, 37 °C, 1 μg enzyme) in test [3] turned out to be 32 nM; in test [4] it was 37 nM; in test [5], 35.6 nM.

B1: GST::At-I2 (natural protein)
chain: MTEPKRGRVQWDEANIVEIESNKPVRQKITEPKTPYHPMMDDDGSLSPRGRAFDECVDDMQRAEELRNVLNDAAASSSRNSSQGSGGGGWSSSDEEEEEADPMDQDEEGSGSGKNERFNAHRKAHYDEFRKVKELRSSGSFYEEEEEEDDGAKGSKSETTTNSRHTKGGNKELDATKTVSGTSSSSSPELI
For the molecule B1, the percent inhibition of phosphatase activity (pNPP) at three At-I2 concentrations; maximum at the highest concentration used in test [1] was 90.4%. The molecule further yielded a percent inhibition of phosphatase activity (pNPP) by At-I2 at three concentrations; highest at high concentration in test [6] of 100%.
